Residue numbers refer to the chain shown, from its start.
Assays:
human CGRP receptor = human CGRP receptor (human, UniProt Q16602 23-461; O60894 27-148); experiment: cell-based or functional assay
human PAC1 receptor = target: T1, human PAC1 receptor (human, UniProt P41586 21-468); experiment: cell-based or functional assay
T1 sequence: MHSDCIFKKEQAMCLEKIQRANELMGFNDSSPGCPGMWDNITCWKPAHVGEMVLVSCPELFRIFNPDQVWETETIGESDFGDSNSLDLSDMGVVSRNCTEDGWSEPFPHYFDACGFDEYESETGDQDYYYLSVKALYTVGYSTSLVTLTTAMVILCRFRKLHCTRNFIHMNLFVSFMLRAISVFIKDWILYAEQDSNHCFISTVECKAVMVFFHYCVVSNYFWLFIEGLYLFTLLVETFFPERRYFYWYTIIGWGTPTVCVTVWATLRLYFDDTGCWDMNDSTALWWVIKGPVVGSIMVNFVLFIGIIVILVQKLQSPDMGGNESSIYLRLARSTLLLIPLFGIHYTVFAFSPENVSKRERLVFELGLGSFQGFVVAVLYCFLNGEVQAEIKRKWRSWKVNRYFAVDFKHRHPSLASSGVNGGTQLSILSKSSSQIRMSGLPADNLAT

human CGRP receptor, sequence (Q16602 23-461 limits assumed, chain 1 of 2): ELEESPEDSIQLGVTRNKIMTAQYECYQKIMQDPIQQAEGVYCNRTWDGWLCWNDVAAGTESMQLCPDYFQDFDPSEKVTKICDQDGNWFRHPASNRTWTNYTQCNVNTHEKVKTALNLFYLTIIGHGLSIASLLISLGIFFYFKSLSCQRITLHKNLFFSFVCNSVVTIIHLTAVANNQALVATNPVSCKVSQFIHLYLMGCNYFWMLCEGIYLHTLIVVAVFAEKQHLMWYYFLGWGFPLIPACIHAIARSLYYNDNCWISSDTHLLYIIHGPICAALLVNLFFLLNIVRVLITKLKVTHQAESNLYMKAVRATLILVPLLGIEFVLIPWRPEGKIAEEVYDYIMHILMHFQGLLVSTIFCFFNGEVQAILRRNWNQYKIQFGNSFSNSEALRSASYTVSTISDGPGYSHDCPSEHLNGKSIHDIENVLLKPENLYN
human CGRP receptor, sequence (O60894 27-148 limits assumed, chain 2 of 2): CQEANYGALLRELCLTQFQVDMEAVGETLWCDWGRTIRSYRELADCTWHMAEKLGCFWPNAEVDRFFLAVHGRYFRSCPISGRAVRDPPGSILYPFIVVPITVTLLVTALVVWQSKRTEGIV

B1: iPS:327717 (bispecific antibody, human IgG1, kappa, lambda, N297G)
light 1: not shown
heavy 1: not shown
light 2: QSVLTQPPSVSAAPGQKVTISCSGSSSNIGNNYVSWYQQLPGTAPKLLIYDNNKRPSGIPDRFSGSKSGTSATLAITGLQTGDEADYYCGTWDSRLSAVVFGGGTKLTVLGQPKANPTVTLFPPSSEELQANKATLVCLISDFYPGAVTVAWKADGSPVKAGVETTKPSKQSNNKYAAKSYLSLTPEQWKSHRSYSCQVTHEGSTVEKTVAPTECS
heavy 2: QVQLVESGGGVVQPGRSLRLSCAASGFTFSSFGMHWVRQAPGKGLEWVAVISFDGSIKYSVDSVKGRFTISRDNSKNTLFLQMNSLRAEDTAVYYCARDRLNYYDSSGYYHYKYYGMAVWGQGTTVTVSSASTKGPSVFPLAPSSKSTSGGTAALGCLVKDYFPEPVTVSWNSGALTSGVHTFPAVLQSSGLYSLESVVTVPSSSLGTQTYICNVNHKPSNTKVDKKVEPKSCDKTHTCPPCPAPELLGGPSVFLFPPKPKDTLMISRTPEVTCVVVDVSHEDPEVKFNWYVDGVEVHNAKTKPCEEQYGSTYRCVSVLTVLHQDWLNGKEYKCKVSNKALPAPIEKTISKAKGQPREPQVYTLPPSRKEMTKNQVSLTCLVKGFYPSDIAVEWESNGQPENNYKTTPPVLKSDGSFFLYSKLTVDKSRWQQGNVFSCSVMHEALHNHYTQKSLSLSPGK
% inhibition of human CGRPR (human CGRP receptor): 92% | % inhibition of human PAC1 (human PAC1 receptor): 94%

B2: iPS:327719 (bispecific antibody, human IgG1, kappa, lambda, N297G)
light 1: DIQLTQSPSFLSASVGDRVTITCRASQSIGRSLHWYQQKPGKAPKLLIKYASQSLSGVPSRFSGSGSGTEFTLTISSLQPEDFATYYCHQSSRLPFTFGPGTKVDIKRTVAAPSVFIFPPSDEQLKSGTASVVCLLNNFYPREAKVQWKVDNALQSGNSQESVTEQDSKDSTYSLESTLTLSKADYEKHKVYACEVTHQGLSSPVTKSFNRGEC
heavy 1: not shown
light 2: B1 light 2
heavy 2: B1 heavy 2
% inhibition of human CGRPR (human CGRP receptor): 85% | % inhibition of human PAC1 (human PAC1 receptor): 59%

B3: iPS:327718 (bispecific antibody, human IgG1, kappa, lambda, N297G)
light 1: not shown
heavy 1: not shown
light 2: B1 light 2
heavy 2: B1 heavy 2
% inhibition of human CGRPR (human CGRP receptor): 78% | % inhibition of human PAC1 (human PAC1 receptor): 70%

B4: iPS:327729 (bispecific antibody, human IgG1, kappa, lambda, N297G)
light 1: B2 light 1
heavy 1: not shown
light 2: B1 light 2
heavy 2: B1 heavy 2 with E370K
% inhibition of human CGRPR (human CGRP receptor): 84% | % inhibition of human PAC1 (human PAC1 receptor): 85%

B5: iPS:327730 (bispecific antibody, human IgG1, kappa, lambda, N297G)
light 1: EIVLTQSPATLSLSPGERATLSCRASQSVGRSLHWYQQKPGQAPRLLIKYASQSLSGIPARFSGSGSGTDFTLTISSLEPEDFAVYYCHQSSRLPFTFGPGTKVDIKRTVAAPSVFIFPPSDEQLKSGTASVVCLLNNFYPREAKVQWKVDNALQSGNSQESVTEQDSKDSTYSLESTLTLSKADYEKHKVYACEVTHQGLSSPVTKSFNRGEC
heavy 1: not shown
light 2: B1 light 2
heavy 2: B1 heavy 2 with E370K
% inhibition of human CGRPR (human CGRP receptor): 87% | % inhibition of human PAC1 (human PAC1 receptor): 101%

From patent US20170306033A1 (Amgen, published 2017)
